Reference: patent publication US9925134B2, “Use of substances to protect FGF-2 or FGF-beta growth factor” (BASF Beauty Care Solutions France SAS, priority 2007, dated 2018)
Blank lines part the entries; values can stand above or below the substance they belong to.

Columns and labels:
FGF-2 [1] = molecular target: T1, FGF-2 (Homo sapiens, UniProt P09038); test: Protection of FGF-2 at physiological temperature, FGF-2 dosed after 24 hrs at 37° C.; assay type: biochemical; conditions: 0.01% heparin
Experimental: It was absolutely necessary to check whether the extract 5c was able to protect FGF-2 at a physiological temperature, i.e., 37° C. This is why an investigation consisted of dosing FGF-2 after 24 hrs at 37° C. in the absence or in the presence of increasing concentrations of extract 5c.
Target sequence in this assay (P09038 143-288): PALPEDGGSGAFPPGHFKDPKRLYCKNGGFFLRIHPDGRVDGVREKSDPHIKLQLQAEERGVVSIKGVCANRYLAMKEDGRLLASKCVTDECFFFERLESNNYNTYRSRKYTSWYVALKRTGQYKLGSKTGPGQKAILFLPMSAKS

FGF-2 [2] = molecular target: T1, FGF-2; conditions: 3 hours of incubation at 37° C.; cited from earlier work
Target sequence in this assay (P09038 134-288 limits assumed): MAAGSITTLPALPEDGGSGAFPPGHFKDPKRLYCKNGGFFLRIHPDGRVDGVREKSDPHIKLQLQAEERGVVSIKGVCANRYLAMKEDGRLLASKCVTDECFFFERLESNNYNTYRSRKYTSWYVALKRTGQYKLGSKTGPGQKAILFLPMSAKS

FGF-2 [3] = molecular target: T1, FGF-2; conditions: cited from earlier work
Target sequence in this assay (P09038 134-288 limits assumed): as above

FGF-2 [4] = molecular target: T1, FGF-2; conditions: pH 2 and pH 9 versus neutral pH; cited from earlier work
Target sequence in this assay (P09038 134-288 limits assumed): as above

[5] = system: normal human dermal fibroblasts; test: Fibroblast proliferation by FGF-2 protected by heparin or extract 5c (PNPP); assay type: cell-based; conditions: for Proliferation (expressed as percent relative to the non-treated well): 48 hrs, heparin 0.01% during 24 hrs at 37° C.
Experimental: A solution of FGF-2 is prepared extemporaneously (=non-degraded FGF-2); a solution of FGF-2 is placed for 24 hrse at 37° C. in the absence (=degraded FGF-2) and in the presence of heparin (=FGF-2+heparin at 37° C.) at 0.01%.
Each FGF-2 solution is diluted so as to be applied on the cells, the final FGF-2 concentrations being the following: 0.1, 0.25, 0.5, 0.75 and 1 ng/ml.
Normal human dermal fibroblasts were sown at low density in 6-well plates. They were then grown in a medium in the absence (control) or in the presence of FGF-2 at various concentrations.
After 48 hrs, the activity of intracellular acid phosphatases (PNPP) is dosed, so as to be able to evaluate the effect of FGF-2 solutions, either treated or not, on cell proliferation.
The results are expressed as a proliferation percentage relative to the control well i.e. to the non-treated well.
The same experiment was conducted by replacing heparin with extract 5c. The FGF-2 solution put into the presence of 0.5% of extract 5c is placed for 24 hrs at 37° C. The solution is then diluted so as to apply 0.5 ng/ml of FGF-2 in the wells containing the fibroblasts.
The 5c extract concentration finally applied on the cells is 0.0025%. It was checked beforehand that this 5c extract concentration was not capable of inducing stimulation of the proliferation of fibroblasts. This means that the observed stimulation of proliferation is actually due to the protection of FGF-2 by extract 5c (see Table 8).

FGF-2 [6] = molecular target: T1, FGF-2; test: Study of thermal degradation (stability) of FGF-2 at various temperatures with or without heparin, ELISA; assay type: physicochemical
Experimental: A 5 ng/ml solution of FGF-2 in a 10 mM PBS buffer with 0.1% BSA and 0.1% of methylparaben is prepared.
This solution is placed at various temperatures: 4° C., 20° C., 37° C., 50° C., and 80° C. either in the presence of heparin or not at 500 μg/ml.
Dosages of FGF-2 with a commercial ELISA kit (R&D system, France) are performed at different times (T=0, 3 hrs, 24 hrs and 48 hrs) so as to establish degradation kinetics for each temperature of investigation.
The results are expressed as a percentage of FGF-2 relative to time T=0. The experiments are conducted in triplicates (n=3). The obtained results are illustrated in FIGS. 1 and 2.
Target sequence in this assay (P09038 143-288): as the sequence (P09038 143-288) above

FGF-2 [7] = molecular target: T1, FGF-2; test: Protection of FGF-2 against thermal degradation, stress of 2.15 hrs at 45° C., FGF-2 dosed by ELISA kit; assay type: biochemical; conditions: 0.01% heparin in the final reaction medium; 45° C. stress of Example 2
Experimental: Degradation of FGF-2 observed at about 50° C. is particularly interesting, because a short period of time allows degradation of FGF-2 of about 80%, thereby allowing a large number of tests to be conducted. For this reason, it was decided to achieve screening with a stress of 2.15 hrs at 45° C. and to study the capacity of a large number of actives for protecting FGF-2 against this thermal degradation.
The applied screening model is the following: • 180 μl of a 4.5 ng/ml FGF-2 solution prepared in 0.1% BSA/PBS buffer are distributed in a 96-well microplate. 20 μl of distilled water or 0.05% heparin or a solution containing various active ingredients extracted from different plants to be tested are added. The plate is stirred by means of a plate stirrer and then covered with adhesive tape and placed in an oven at 45° C. for 2.15 hrs. At the end of the incubation period, the plate is taken out and dosage of FGF-2 is then carried out by means of the ELISA kit.
A control plate only containing FGF-2 and distilled water, treated under the same conditions, is left at room temperature.
The results are expressed as a FGF-2 protection percentage relatively to the non-stressed or non-degraded FGF-2 control.
The stress protocol described in Example 2 was applied, 20 μl of water being substituted with 20 μl of corresponding GAG or PG solution. The tested GAGs and PGs thereby undergo additional dilution to 1/10. […]
Target sequence in this assay (P09038 143-288): as above

[8] = 37° C.; neutral pH; cited from earlier work
cathepsin G = molecular target: T2, cathepsin G (Homo sapiens, UniProt P08311); test: Degradation kinetics of FGF-2 by cathepsin G; assay type: biochemical; conditions: for FGF-2 concentration in the presence of cathepsin G / FGF-2 concentration Temperature control: 37° C.; for FGF-2 concentration in the presence of cathepsin G: cathepsin G 0.02 U per well; for FGF-2 concentration Temperature control: enzyme-free; for Degradation % in the presence of cathepsin G: relative to temperature control
T2 sequence (P08311 21-244): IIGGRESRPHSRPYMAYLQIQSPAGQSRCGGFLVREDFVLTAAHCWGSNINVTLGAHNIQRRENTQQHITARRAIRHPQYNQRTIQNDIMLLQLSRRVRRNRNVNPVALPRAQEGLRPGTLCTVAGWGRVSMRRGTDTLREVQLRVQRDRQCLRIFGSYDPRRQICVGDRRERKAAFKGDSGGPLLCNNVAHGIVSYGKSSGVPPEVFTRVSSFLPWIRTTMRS
Experimental: For this reason, a study of the degradation of FGF-2 by cathepsin G was conducted. Degradation kinetics was carried out in a 100 mM Hepes buffer, pH7 containing 0.1% BSA. Cathepsin G was added into the wells of the plate at a concentration of 0.02 U per well to a 2 ng/well FGF-2 solution. The plate was incubated at 37° C. and sampling was performed at 15, 30, 60, 90 and 120 minutes in order to dose the remaining FGF-2.
The control (100%) is made by extemporaneous dosage of FGF-2. At the same time, an enzyme-free control solution is placed at 37° C. in order to study thermal degradation at the different times, so as to get rid of this degradation due to temperature and to quantify the portion only due to enzymatic degradation.

Protection of FGF-2, positive control (FGF-2 [1]): 110.53%±3.20
Protection of FGF-2 by heparin (in words) (FGF-2 [6]; 0.05% heparin, 80° C.): not effective
Stability of FGF-2 in the presence of heparin (in words) (FGF-2 [6]; 0.05% heparin, various temperatures): degradation is stopped
Protection of FGF-2, positive control (FGF-2 [7]): 105.52%±3.04
Substance: heparin
Protection of FGF-2 against trypsin and chymotripsin (in words) (FGF-2 [2]): total protection of FGF-2
Protection of the activity of FGF-2 by heparin (in words) (FGF-2 [3]; 0° C., 20° C., 37° C., 1 hr to 60 days): provides protection of the activity of FGF-2 over time
Activity of FGF-2 in the presence of heparin (in words) (FGF-2 [3]; 60° C. and 90° C.): no activity is detected
Activity of FGF-2 at acid and basic pH in the presence of heparin (in words) (FGF-2 [4]): retain a similar (or even slightly weaker) activity of FGF-2
Proliferation with FGF-2 protected by heparin (in words) ([5]; heparin 0.01%, up to 0.5 ng/ml FGF-2): proliferation is maintained

FGF-2 concentration in the presence of cathepsin G (cathepsin G; 0 minutes): 339.05 ± 7.43 pg/mL
Degradation % in the presence of cathepsin G (cathepsin G; 0 minutes): 13.29%
FGF-2 concentration in the presence of cathepsin G (cathepsin G; 15 minutes): 295.61 ± 8.49 pg/mL
Degradation % in the presence of cathepsin G (cathepsin G; 15 minutes): 8.95%
FGF-2 concentration in the presence of cathepsin G (cathepsin G; 30 minutes): 248.04 ± 1.97 pg/mL
Degradation % in the presence of cathepsin G (cathepsin G; 30 minutes): 14.77%
FGF-2 concentration in the presence of cathepsin G (cathepsin G; 60 minutes): 203.67 ± 1.13 pg/mL
Degradation % in the presence of cathepsin G (cathepsin G; 60 minutes): 27.5%
FGF-2 concentration in the presence of cathepsin G (cathepsin G; 90 minutes): 141.94 ± 5.14 pg/mL
Degradation % in the presence of cathepsin G (cathepsin G; 90 minutes): 45.55%
FGF-2 concentration in the presence of cathepsin G (cathepsin G; 120 minutes): 131.36 ± 2.49 pg/mL
Degradation % in the presence of cathepsin G (cathepsin G; 120 minutes): 45.6%
Substance: FGF-2: Fibroblast Growth Factor; non-degraded = solution of FGF-2 prepared extemporaneously
half-life time of FGF-2 in vitro [8]: about 24 hours
FGF-2 concentration Temperature control (cathepsin G; 0 minutes): 391.8 ± 3.64 pg/mL
FGF-2 concentration Temperature control (cathepsin G; 15 minutes): 324.99 ± 1.7 pg/mL
FGF-2 concentration Temperature control (cathepsin G; 30 minutes): 291.83 ± 2.4 pg/mL
FGF-2 concentration Temperature control (cathepsin G; 60 minutes): 280.64 ± 3.23 pg/mL
FGF-2 concentration Temperature control (cathepsin G; 90 minutes): 259.81 ± 4.9 pg/mL
FGF-2 concentration Temperature control (cathepsin G; 120 minutes): 241.67 ± 1.97 pg/mL
Proliferation (as a percentage) of fibroblasts relative to the non-treated control ([5]; FGF-2 0.5 ng/ml, 0.5% 5c extract during 24 hrs at 37° C. (0.0025% on the cells)): 148.5% ± 0.007
Proliferation (expressed as percent relative to the non-treated well) ([5]; FGF-2 concentration 0.1 ng/ml): 116.7 ± 0.012%
Proliferation (expressed as percent relative to the non-treated well) ([5]; FGF-2 concentration 0.25 ng/ml): 138.7 ± 0.005%
Proliferation (expressed as percent relative to the non-treated well) ([5]; FGF-2 concentration 0.5 ng/ml): 148.5 ± 0.007%
Proliferation (expressed as percent relative to the non-treated well) ([5]; FGF-2 concentration 0.75 ng/ml): 163.2 ± 0.005%
Proliferation (expressed as percent relative to the non-treated well) ([5]; FGF-2 concentration 1 ng/ml): 160 ± 0.003%
FGF-2 degraded (percentage relative to T=0) (FGF-2 [6]; 4° C., 48 hrs, without heparin): 20%
FGF-2 degradation (percentage relative to T=0) (FGF-2 [6]; 37° C., 3 hrs, without heparin): 65%
FGF-2 degraded (percentage relative to T=0) (FGF-2 [6]; 37° C., 24 hrs, without heparin): 80%
FGF-2 degradation (percentage relative to T=0) (FGF-2 [6]; 50° C., 3 hrs, without heparin): 80%
FGF-2 degradation (in words) (FGF-2 [6]; 80° C., 3 hrs, without heparin): total degradation
